Experiment: soluble on expression in E. coli; label from the status in PepcDB or PDB records
For “MDRLGSFSNDPSDKPPCRGCSSYLMEPYIKCAECGPPPFFLCLQCFTRGFEYKKHQSDHTYEIMTSDFPVLDPSWTAQEEMALLEAVMDCGFGNWQDVANQMCTKTKEECEKHYMKYFINNPLFASTLLNLKQAEEAKTADTAIPFHSTDDPPRPTFDSLLSRDMAGYMPARADFIEEFDNYAEWDLRDIDFVEDDSDILHALKMAVVDIYHSRLKERQRRKKIIRDHGLINLRKFQLMERRYPKEVQDLYETMRRFARIVGPVEHDKFIESHACRWFLSLEQYLCVYIYINRRDNGVFYVKFYK”, the “soluble on expression in E. coli” value was “soluble”. In the case of “MDSQLSNRLAQVAAYVPKGVKLLDVGSDHAYLPIFLVETNQISAAIAGEVVRGPYESALKNVTQSGLAEHIQVRLANGLAAFEEADDVTAITICGMGGRLIADILEAGKEKLQGIERLVLQPNNREDDLRAWLSVNAFKIVAETIMAENDKYYEIIVAEHGEKALSATELRFGPYLSQEKSVVFKEKWQREMDKLAYALSCIPEEKTQERQLLLTKIQQIKEVIVHES”, the “soluble on expression in E. coli” value is reported as “not soluble”. With “MDSRTKGKTVMEVGGDGVAVITLINPPVNSLSFDVLYNLKSNYEEALSRNDVKAIVITGAKGRFSGGFDISGFGEMQKGNVKEPKAGYISIDIITDLLEAARKPSVAAIDGLALGGGLELAMACHARISAPAAQLGLPELQLGVIPGFGGTQRLPRLVGLTKALEMILTSKPVKAEEGHSLGLIDAVVPPAELVTTARRWALDIVGRRKPWVSSVSKTDKLPPLGEAREILTFAKAQTLKRAPNMKHPLMCLDAIEVGIVSGPRAGLEKEAEVASQVVKLDTTKGLIHVFFSQRGTAKVPGVTDRGLVPRKIKKVAIIGGGLMGSGIATALILSNYPVILKEVNEKFLEAGIGRVKANLQSRVRKGSMSQEKFEKTMSLLKGSLDYESFRDVDMVIEAVIENISLKQQIFADLEKYCPQHCILASNTSTIDLNKIGERTKSQDRIVGAHFFSPAHIMPLLEIVRTNHTSAQVIVDLLDVGKKIKKTPVVVGNCTGFAVNRMFFPYTQAAMFLVECGADPYLIDRAISKFGMPMGPFRLCDLVGFGVAIATATQFIENFSERTYKSMIIPLMQEDKRAGEATRKGFYLYDDKRKAKPDPELKKYIEKARSISGVKLDPKLANLSEKDIIEMTFFPVVNEACRVFAEGIAVKAADLDIAGIMGMGFPPYRGGIMFWADSIGSKYIYSRLDEWSKAYGEFFKPCAFLAERGSKGVLLSAPVKQASSRL” the “soluble on expression in E. coli” value was “soluble”. In the case of “MDTLDELLPREKMLRSGIASLSDVELLALFLRTGTPGKDVMTLAKEILQHFGSLYGLLSADFAQFRGVNGIGLAKFAQLKGIAELARRYYSVRMNEESALLSPEMTREFLQSQLTGEEREIFLVIFLDAQHRVLQHSRLFSGTLNHVEVHPREIVREAIKLNASAVILAHNHPSGCAEPSKADKLITERVIKCCQFMDIRVLDHLIIGRGEYVSFAERGWI”, the “soluble on expression in E. coli” value is reported as “not soluble”. With “MDTLFSLKVFRQVVQSGGFTRAADALGISTAMASKHVSHLENTVQAKLLHRNSRNLSLTEAGEEYYRQCSYALDTLDDAAQKAAGGTEKPQGLLRVTMPLWFAGSQICNWLAEYRERYPEVALELILDNRHVDLIAEGVDLALRVSQTLSPSLIARPLAEIEFALLASPDFLRRNGVPETPEEVAGLPAVLPTYTNQQKLDLTRKSDGKKYRLELTPVIRTDNTLMMREMIKAGACIGYQPLWAAEHDLRCGTLVRLLPGYAVPTDRLNAVYADRAFLSAKVRSFIDFLNEKIASRKGCRNAV” the “soluble on expression in E. coli” value was “not soluble”. In the case of “MDTMSQILKLLEKTDSIEINEFRMDVDELELTIMPTLQNVVQKVVEKQIEAKKEFESQIEFKYPVKDYAGKVNEVKLGGKNRKTVKLGGQTSLYRFEEPQPNAPTVTFDVFDIPMNGLPRPIKENFEDVMHSPGEWAQKAVKEFGADMITLHLIGTDPKVKDKSLKDAAKDLEEVLQAVKVPLVIGGSGNPKKDPLVLEMAAEVADGERCLLASANLDLDYQKIAQAAVKHDHAVLSWAISDINMQKVLNKALMKEGLTANDIVMDPTTCALGYGIEFSIDVMTRTRLSALKGDEILQMPMSSGTTNAWGSREAWMKKDEWGPTKYRGPIWEVVTGLTMMLCGVDIFMMLHPLSVKTLKEIGTTLTYEYKSKESQDISDWINKF”, the “soluble on expression in E. coli” value is reported as “not soluble”. With “MDVFELTKKTLLAVISESSSSDDYLEALAEIEGLVKHEAAATSFQLMERGKVRELAVPKPEFYNKRRKFEDFQEKTVFDWKSEFNLKNAKKVERWTVEEKEKREKQRCFIEVEHYKKKEYLNFLYPGVHYCTCPYFQSTVLQKQTNWICVHILAYYFAKNFGKIERIECKSEIVGLVKKIFIRSIFLEEKK” the “soluble on expression in E. coli” value was “not soluble”. In the case of “MDVIREYLMFNELSALSSSPESVRSRFSSIYGTNPDGIALNNETYFNAVKPPITAQYGYYCYKNVGTVQYVNRPTDINPNVILAQDTLTNNTNEPFTTTITITGSFTNTSTVTSSTTTGFKFTSKLSIKKVFEIGGEVSFSTTIGTSETTTETITVSKSVTVTVPAQSRRTIQLTAKIAKESADFSAPITVDGYFGANFPKRVGPGGHYFWFNPARDVLNTTSGTLRGTVTNVSSFDFQTIVQPARSLLDEQ”, the “soluble on expression in E. coli” value is reported as “soluble”. For “MDVKLLAHTQLSEEFVNYLSVVFGIGDEGFDPTHGQVVALSAIRTCYSPNKPSRIVSLEGEKYFKGKATDGKGGKEVDRLIRHIVGSGHASTLEHLTYTFAVEGVSRALLAQLTRHRVGFSYSVQSQRYVRMGSNDKIGGFDYVVPETVKAKGEQVVNAYNEMMYKLQSGYDLLRTLGIPAEDARSVLPNAAATNLVLTVNLRGLLDFYNKRRKGKGAQAEIAELAEQLRQEVVKVEKWVDEFFWKWKVTEV”, the “soluble on expression in E. coli” value was “not soluble”. For “MDVLGALKYFRKKKKIAQKDVLPKKGKQTYRRIEIGEAKLSYEDLMTALQSLGITFNEFFFMVSDTRIMASSEVKHQIECCQMGLNNTSEKKNLIHYFYQLERNPHKNALEMSIYTDIKLTFSNDWEEIPEFDETDRMVILALISSKSYYTYYDYQMVTNPAALFSENEVLQILEQMFPVKDAELRDTQTLNVAYGFYLNIITGELYKKNYAKAREYLALVSVTTIPAEIYYIHFNLRYLKNLTYYLYTGKMRYYKEVIAVIDMIESFGDARLAEGMKKEMLQLTAGRTFNLEKGQFPLNIVTEK”, the “soluble on expression in E. coli” value was “not soluble”. With “MDYWEWKTDGAGLEADEVCITVQHGVTLYDKNEKTQRQNGKLSLTTHHLRYNDEADISTVLQLPLELVRRSGQAPSISSGFGPFSSAKIIVPLPKNAYVKLSFRSGGVDNFYAALVGALKKKTWLQTKTEAAASGRGSSSGASPASTTPVPNSRPPPPVPRGFGIAGVQQASLQSAAMSETLKDIDDVMNKASKLVNNIRRLRERSEAAAAAGSDAGSETAVERTTIESIESTLGLGAIVTRNHSNGSDSRFYRDLAVEMHTWMTHECNSKLFNDMPVVPLIELFALYNKARGGDLVSPLDVLNACTYMAAKMSSSCYDLVTLPSGRKALVNRDDSLLLAKLTTVLGPQLVNSKGSPVQDAWTKTSSQQQQRSGDASSLVRVSTTSDFPKASRDLKSVSDVSLAEKMQVATEVAADILTLLMLKGYLCCMDTGFDCYVYTWNIFVF” the “soluble on expression in E. coli” value was “not soluble”. With “MEAESAPQAPMSGGRVLKMVTEMGSATVGGISPALSANAAKSFLEATDKEKKTLQGLNDRLGNYIDRVKKLEEQNRKLVADLDELRGKWGKDTSEIKIKYSESLSTARKDIDDAARRKAEVDVKVARHRDDLAEYRSRYEDIQQRRESDREKISQWTNAIADAQSEVEMLRARFKQLTDEEKRVTADNSRIWEELQKARSDLDDETIGRIDFQNQVQTLMEELEFLRRVHEQEVKELQALLAQAPADTREFFKNELALAIRDIKDEYDIIAKQGKQDMESWYKLKVSEVQGSANRANMESTYQRDEVKRMRDNIGDLRGKLGDLENKNSLLEKEVQNLNYQLTDDQRQYEAALNDRDATLRRMREECQTLVAELQALLDTKQMLDAEIAIYRKMLEGEETRVGLTQMVEQAVKTHSLQQQENTDSTRSVRGEVSTKTTFQRSAKGNVTISECDPNGKFIKLENSHRNKDENVGEHKIRRKLDGRREIVYSIPANVVIKPGKNLTIYARDQGGINNPPESLVFDGENTWGIGANVVTSLVNKDGEERATHTQKTIQSGQ” the “soluble on expression in E. coli” value was “not soluble”. With “MEAESLADSGFPLEVFPQKMQSIIIDMVVHGNFKVDYVAMSMLSAASAALGNTYRIHVKQDWDTNAALYIILVGRPGMGKTPPLQLAYKPIREYERKLFDKFCHELDLYEAACATKESGSKEMKKPILKRVTLDDFTLEALVLEHYNNLRGIAINYDEILGLLANTDRYGKNPMLERLLSIWSGCHLENTRVKNDRPQRVEEPCVNIIGTTQTKRMKELMASKFMDTGFLDRILVVYPKSKKVPHWLDEEDSHVRQSEASRKWADIIGKIFGLDYARCNDTNECCPNILYMDKDAHSLFFGWWNRNVDAINAIEDDEDVETRVMKHNTHVARIALLLQALRYACGESHLQSIDVDSIEGALRLNEYCENCYQRCRAFVAEDTCDSMSKELLYLLEDSFDTKTAIKTGMENLHVTDRTVMNYIKELMKSGLITKAKKGFYEKVKFETGQATET” the “soluble on expression in E. coli” value was “not soluble”. In the case of “MEALILEPSLYTVKAILILDNDGDRLFAKYYDDTYPSVKEQKAFEKNIFNKTHRTDSEIALLEGLTVVYKSSIDLYFYVIGSSYENELMLMAVLNCLFDSLSQMLRKNVEKRALLENMEGLFLAVDEIVDGGVILESDPQQVVHRVALRGEDVPLTEQTVSQVLQSAKEQIKWSLLR”, the “soluble on expression in E. coli” value is reported as “not soluble”. With “MEAQNRIEDHGIIGDMRSAALIADTGSIDFCCWPDFDSPSIFTALLDTPDAGIFQLAPDLPDARRLQIYLPDTNVLQTRWIAEQAVVEVTDLMPIGEDQDDLPRIVRRVQVRFGEATIRMRCRVRMDYSRALEHHHHHH” the “soluble on expression in E. coli” value was “not soluble”. With “MEDEIKSFEKDRNLIIEDSKNSKNNIVDVQKLIEALKDEKNAKNIVVDFTEYNPLHNGHKYCMDFGKSEGLFISVIPGPLERSGRGIPYLVNRHIRAEMALLAGADLVVEGPPMGIMGSGQYMQCLIKIFSALNGDIIPRGYIEEETMERVINSINNGNHIKIKPYNISCIETREKLGEKLEIDNYVIASMSYTIYKLKENFPKWNPKFKFIERIEGISGTKIREGVFNNNFESIKHMLPITTIDVFKNFGDNLSEIILKRNEEMVLDTVNNFDLNKYLPENISEKLNEKEYYESIEEIKEYIPRGFSKNNIERTISKLEARIEKETISKYIENYPANLRILNGINNHE” the “soluble on expression in E. coli” value was “not soluble”. In the case of “MEDIKIKEIFENIYEVDLGDGLKRIATKSIVKGKKVYDEKIIKIGDEEYRIWNPNKSKLAAAIIKGLKVMPIKRDSKILYLGASAGTTPSHVADIADKGIVYAIEYAPRIMRELLDACAERENIIPILGDANKPQEYANIVEKVDVIYEDVAQPNQAEILIKNAKWFLKKGGYGMIAIKARSIDVTKDPKEIFKEQKEILEAGGFKIVDEVDIEPFEKDHVMFVGIWEGK”, the “soluble on expression in E. coli” value is reported as “soluble”. In the case of “MEDLYPSRQNNQPKILKRKDPVIYTDRSKDNQAPITKEQLDSYEKNGFLQIKNFFSEDEVIDMQKAIFELQDSIKDVASDKVIREPESNDIRSIFHVHQDDNYFQDVANDKRILDIVRHLLGSDVYVHQSRINYKPGFKGKEFDWHSDFETWHVEDGMPRMRAISVSIALSDNYSFNGPLMLIPGSHNYFVSCVGETPDNNYKESLKKQKLGVPDEESLRELTRIGGGISVPTGKAGSVTLFESNTMHGSTSNITPYPRNNLFMVYNSVKNRLVEPFSGGEKRPEYIAVREKQPVYSAVNSAWSHPQFEK”, the “soluble on expression in E. coli” value is reported as “soluble”.

From the DeepSol protein solubility set
